In PMC6269467:

Tests used:
[1] = molecular target: αE-catenin actin-binding domain, wild type (αEcat-ABD-WT) (mouse) (UniProt P26231); assay: SEC-MALS; elution profiles at 3 mg/ml to 30 mg/ml; MALS of the dimer peak at 30 mg/ml; dimer to monomers; Superdex-200 Increase 10/300 GL; 20 mM Tris-HCl pH 7.0, 100 mM NaCl
[2] = molecular target: αN-catenin actin-binding domain with the helix-1 mutation (αNcat-ABD-H1) (mouse) (UniProt Q61301); assay: crystal structure; αNcat-ABD-H1 crystals in forms A (2.2 Å) and B (2.8 Å), grown at 277 K by vapor diffusion; molecular replacement with PDB 4K1O

Row | stoichiometry N [1] | stoichiometry N [2] | Substance
1 | 2 | – | αE-catenin actin-binding domain, wild type (αEcat-ABD-WT) (from UniProt P26231 652-906) (domain or fragment)
2 | – | 2 | αN-catenin actin-binding domain with the helix-1 mutation (αNcat-ABD-H1) (from UniProt Q61301-2 651-905) (domain or fragment)
